Key:
[1] = system: OC[C@H]1O[C@@](CO)(O[C@H]2O[C@H](CO)[C@@H](O)[C@H](O)[C@H]2O)[C@@H](O)[C@@H]1O; experiment: HPLC of 4-methylumbelliferone glucoside, initial velocities, Lineweaver-Burk fit; assay type: biochemical, Deinococcus geothermalis; details: donor, 0.4-200 mM, 1 mM 4-methylumbelliferone as acceptor, 50 mM Tris-HCl pH 8.0, 45°C
Text: (§1) HPLC of 4-methylumbelliferone glucoside, initial velocities, Lineweaver-Burk fit on DgAS (WT DgAS)

Cc1cc(=O)oc2cc(O)ccc12 = experiment: as above; assay type: biochemical, Deinococcus geothermalis; details: acceptor, 0.1-1.0 mM, 200 mM sucrose as donor, 50 mM Tris-HCl pH 8.0, 45°C
Text: as §1

Substance | Km [1] [mM] | kcat [1] [s⁻¹] | kcat/Km [1] [M⁻¹ s⁻¹] | Km (Cc1cc(=O)oc2cc(O)ccc12) [mM] | kcat (Cc1cc(=O)oc2cc(O)ccc12) [s⁻¹] | kcat/Km (Cc1cc(=O)oc2cc(O)ccc12) [M⁻¹ s⁻¹]
DgAS (WT DgAS) (Deinococcus geothermalis DSM 11300) | 36.174 ± 2.037 | 0.1096 | 3.03 |  |  | 
DgAS (WT DgAS) (Deinococcus geothermalis DSM 11300; A226N) | 44.570 ± 4.625 | 0.1139 | 2.55 | 2.718 ± 0.655 | 0.28778 | 106
